Test results taken from patent US20240358849A1 (SUZHOU FUSE BIOSCIENCES, published 2024).
Residue numbers refer to the chain shown, from its start. Names and notes keep the numbering of the source.

T1: IL-2hex, mutant human IL-2 (deltaA1/T3A/F42A/Y45A/L72G/C125S) (human, UniProt P60568 22-153)
T1 chain: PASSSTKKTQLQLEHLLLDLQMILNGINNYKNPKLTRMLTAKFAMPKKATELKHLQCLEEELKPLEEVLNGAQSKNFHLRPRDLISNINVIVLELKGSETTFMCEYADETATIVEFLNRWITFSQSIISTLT

B1: anti-IL-2/anti-FAP two-in-one antibody D029 (bispecific antibody, V domains shown)
VH: EVQLVESGGGLVQPGGSLRLSCAASGFTFTWSFMSWVRQAPGKGLEWVSWIGPSGSYTDYADSVKGRFTISRDNSKNTLYLQMNSLRAEDTAVYYCARSQYGRYYSPDYYFDYWGQGTLVTVSS
VL: DIQMTQSPSSLSASVGDRVTITCRASQDGGNYLNWYQQKPGKAPKLLIYGASTLYSGVPSRFSGSGSGTDFTLTISSLQPEDFATYYCQQGRTPPLTFGQGTKVEIKR
B2: D029 HV2LV1 (bispecific antibody, V domains shown)
VH: B1 VH with S32F, S56L
VL: B1 VL with D28A, G29L, N31F, G50A, T53S, Y55S
notes: also called Rev1/S55L:S32F
B3: D029 HV2LV2 (bispecific antibody, V domains shown)
VH: B1 VH with S32F, S56L
VL: B1 VL with Q27G, D28A, G29L, N31F, G50A, T53S, Y55S, P94Y, L96F
notes: also called Rev1-Q27G:P94Y:L96F/S55L:S32F
B4: D029 HV2LV4 (bispecific antibody, V domains shown)
VH: B1 VH with S32F, S56L
VL: B1 VL with Q27G, D28A, G29L, N31F, G50A, T53S, Y55S, P94Y
notes: also called Rev1-Q27G:P94Y/S55L:S32F
B5: D029 HV3LV1 (bispecific antibody, V domains shown)
VH: B1 VH with T30R, S32F, S56L
VL: B1 VL with D28A, G29L, N31F, G50A, T53S, Y55S
notes: also called D029L-Rev1/S55L:T30R:S32F; Rev1/S55L:T30R:S32F
B6: D029 HV3LV2 (bispecific antibody, V domains shown)
VH: B1 VH with T30R, S32F, S56L
VL: B1 VL with Q27G, D28A, G29L, N31F, G50A, T53S, Y55S, P94Y, L96F
notes: also called D029L-Rev1:Q27G:P94Y:L96F/S55L:T30R:S32F
B7: D029 HV3LV4 (bispecific antibody, V domains shown)
VH: B1 VH with T30R, S32F, S56L
VL: B1 VL with Q27G, D28A, G29L, N31F, G50A, T53S, Y55S, P94Y
notes: also called D029-Rev1:Q27G:P94Y/S55L:T30R:S32F
B8: D029 HV5LV1 (bispecific antibody, V domains shown)
VH: B1 VH with T30R, S32A, S56L
VL: B1 VL with D28A, G29L, N31F, G50A, T53S, Y55S
notes: also called Rev1/S55L:T30R:S32A
B9: D029 LV4 (Rev1:Q27G:P94Y) (bispecific antibody, V domains shown)
VH: B1 VH
VL: B1 VL with Q27G, D28A, G29L, N31F, G50A, T53S, Y55S, P94Y
B10: D029 T30R:S55L/LV1 (bispecific antibody, V domains shown)
VH: B1 VH with T30R, S56L
VL: B1 VL with D28A, G29L, N31F, G50A, T53S, Y55S
notes: also called Rev1/S55L:T30R
B11: D029 VH-S55L:T30R (bispecific antibody, V domains shown)
VH: B1 VH with T30R, S56L
VL: B1 VL
B12: D029-HV1LV2 (bispecific antibody, V domains shown)
VH: B1 VH with S56L
VL: B1 VL with Q27G, D28A, G29L, N31F, G50A, T53S, Y55S, P94Y, L96F
notes: also called Rev1:Q27G:P94Y:L96F/S55L; D029HVILV2 (so in the source)
B13: D029-HV1LV4 (bispecific antibody, V domains shown)
VH: B1 VH with S56L
VL: B1 VL with Q27G, D28A, G29L, N31F, G50A, T53S, Y55S, P94Y
notes: also called Rev1:Q27G:P94Y/S55L; D029HVILV4 (so in the source)
B14: D029HV6LV2 (bispecific antibody, V domains shown)
VH: B1 VH with S32A, S56L
VL: B1 VL with Q27G, D28A, G29L, N31F, G50A, T53S, Y55S, P94Y, L96F
notes: also called Rev1-Q27G:P94Y:L96F/S55L:S32A
B15: D029VH T30R:S55L/LV2 (bispecific antibody, V domains shown)
VH: B1 VH with T30R, S56L
VL: B1 VL with Q27G, D28A, G29L, N31F, G50A, T53S, Y55S, P94Y, L96F
notes: also called Rev1:Q27G:P94Y:L96F/S55L:T30R
B16: D029VH T30R:S55L/LV4 (bispecific antibody, V domains shown)
VH: B1 VH with T30R, S56L
VL: B1 VL with Q27G, D28A, G29L, N31F, G50A, T53S, Y55S, P94Y
notes: also called Rev1:Q27G:P94Y/S55L:T30R
B17: Rev1-Q27G/P94Y/L96F:H1V10 (bispecific antibody, V domains shown)
VH: B1 VH with T30S, W31R, S56L
VL: B1 VL with Q27G, D28A, G29L, N31F, G50A, T53S, Y55S, P94Y, L96F
notes: H1V10 = D029 VH with T30S:W31R:S55L; also called H1V10 with D029LV2
B18: Rev1-Q27G/P94Y/L96F:H1V11 (bispecific antibody, V domains shown)
VH: B1 VH with W31Y, S32F, S56L
VL: B1 VL with Q27G, D28A, G29L, N31F, G50A, T53S, Y55S, P94Y, L96F
notes: H1V11 = D029 VH with W31Y:S32F:S55L; also called H1V11 with D029LV2
B19: D029HV4LV2 (bispecific antibody, V domains shown)
VH: B1 VH with T30S, W31R, S32F, S56L
VL: B1 VL with Q27G, D28A, G29L, N31F, G50A, T53S, Y55S, P94Y, L96F
notes: also called Rev1-Q27G/P94Y/L96F:H1V9
B20: 872-5 VL T92R (antibody, V domains shown)
VH: EVQLVESGGGLVQPGGSLRLSCAASGFTFRGYIMSWVRQAPGKGLEWVSWISPEGSRTGYADSVKGRFTISRDNSKNTLYLQMNSLRAEDTAVYYCARLQYGTWFDYWGQGTLVTVSS
VL: DIQMTQSPSSLSASVGDRVTITCRASQSISSYLNWYQQKPGKAPKLLIYAASSLQSGVPSRFSGSGSGTDFTLTISSLQPEDFATYYCQQARLLLPTFGQGTKVEIKR
notes: BLI per 6.1.3
B21: antibody D003 (antibody, V domains shown)
VH: EVQLVESGGGLVQPGGSLRLSCAASGFTFYTYIMSWVRQAPGKGLEWVSSIGPSYGDTIYADSVKGRFTISRDNSKNTLYLQMNSLRAEDTAVYYCARTISYSQYAYGYSFDYWGQGTLVTVSS
VL: B20 VL with A91T, L93S, L94Y
B22: two-in-one antibody D049 (bispecific antibody, V domains shown)
VH: B20 VH with R30F, G31S, I33W, W50T, E54Y, G55D, R57S, G59A, Q100L
VL: B20 VL with S28I, I29V, S30R, S31T, A91G, R92A, L93Q, L95Q
B23: 872-5 VH S52G:VL A91G/T92R (antibody, V domains shown)
VH: B20 VH with S52G
VL: DIQMTQSPSSLSASVGDRVTITCRASQSISSYLNWYQQKPGKAPKLLIYAASSLQSGVPSRFSGSGSGTDFTLTISSLQPEDFATYYCQQGRLLLPTFGQGTKVEIK
notes: BLI per 6.1.3

Legend:
[1] = target: T2, human FAP expressed on cells (HEK 293T-hFAP-E5; ExpiCHO-hFAP) (human, UniProt Q12884 1-760); assay: cell-based or functional assay
[2] = target: T1, IL-2hex, mutant human IL-2 …; assay: cell-based or functional assay
[3] = target: T1, IL-2hex, mutant human IL-2 …; assay: Affinity (nM), Table 13B
[4] = target: T1, IL-2hex, mutant human IL-2 …; assay: BLI per 6.1.3; column head IL-2 KD
[5] = target: T3, human Fibroblast Activation Protein (FAP), soluble antigen (human, UniProt Q12884 26-760, biotinylated when immobilized on streptavidin sensors); assay: BLI per 6.1.3
T3 construct: also called hFAP; biotinylated FAP

[6] = target: T3, human Fibroblast Activation Protein …; assay: Affinity (nM), Table 13B
[7] = target: T3, human Fibroblast Activation Protein …; assay: BLI, small-scale crude lysate
[8] = target: T3, human Fibroblast Activation Protein …; assay: BLI per 6.1.3, human FAP;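 further: biolayer interferometry with immobilized antigen on sensors, antibody association up to 240 s then dissociation up to 420 s, reference-subtracted, global 1:1 fit with unlinked Rmax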
[9] = target: T2, human FAP expressed on cells (HEK …); assay: flow cytometry, 1 µg/mL antibody

Row | Binder | EC50 of HEK-Blue IL2 assay (pM) with HEK 293T-hFAP-E5; variant as masking moiety of a configuration 3 immunoconjugate [1] [pM] | EC50 of HEK-Blue IL2 assay (pM) with HEK 293T; variant as masking moiety of a configuration 3 immunoconjugate [2] [pM] | Kd [3] [nM] | Kd [4] [nM] | Kd [5] [nM] | Kd [6] [nM] | Kd [7] [nM] | other results
1 | B1 | 56 | 1510 | 431 | 431 |  |  |  | 
2 | B2 | 78 | 9260 | 1100 | 528 | 2.31 | 1.8 |  | 
3 | B3 | 27 | 6060 | 419 | 419 | 1.98 | 2 |  | 
4 | B4 | 43 | 5140 | 1590 | 1590 | 1.53 | 1.5 |  | 
5 | B5 | 35 | 7380 | 237 | 427 | 1.79 |  |  | 
6 | B6 | 186 | 5330 | 100 | 331 | 3.58 | 100 |  | 
7 | B7 | 208 | 4120 | 528 | 1100 | 1.8 | 2.3 |  | 
8 | B8 | 41 | 5630 | 331 | 100 | > 100 | 3.6 |  | 
9 | B9 |  |  |  |  |  |  | ~100 | 
10 | B10 |  |  |  |  |  |  | ~100 | 
11 | B11 |  |  |  |  |  |  | ~100 | 
12 | B12 |  |  |  |  |  |  | ~100 | 
13 | B13 |  |  |  |  |  |  | ~100 | 
14 | B14 | 145 | 4820 | 199 |  |  | 62 |  | 
15 | B15 |  |  |  |  |  |  | ~100 | 
16 | B16 |  |  |  |  |  |  | ~100 | 
17 | B17 | 117 | 14800 | 700 |  |  | 10 |  | 
18 | B18 | 57 | 9370 | 600 |  |  | 0.51 |  | 
19 | B19 | 40 | 6100 | 4500 |  |  | 0.51 |  | 
20 | B20 |  |  |  |  |  |  |  | Kd [8]: 1.6 nM; koff [8]: 0.001 s⁻¹; kon [8]: 614000 M⁻¹ s⁻¹
21 | B21 |  |  |  |  |  |  |  | binding result [9]: binds
22 | B22 |  |  |  |  |  |  |  | binding result [9]: binds
23 | B23 |  |  |  |  |  |  |  | Kd [8]: 2.2 nM; koff [8]: 0.00148 s⁻¹; kon [8]: 673000 M⁻¹ s⁻¹
